Results from patent US20230054202A1 (ZYDUS LIFESCIENCES, published 2023).

What was measured:
[1] = biological target: T1, native human purified properdin (Quidel; Cat No: A412) (human, UniProt P27918 28-469); experiment: SPR, purified hybridoma antibody on human properdin
T1 construct: mature; Native purified commercial protein; In the haemolysis assays the properdin is the one present in normal human serum; also called human properdin; factor P

[2] = biological target: T1, native human purified properdin …; experiment: SPR (ProteOn XPR36), human properdin amine-coupled on GLC chip, mAb injected, 25 C, PBS pH 7.4
Method: The kinetic rate constants for the binding of anti properdin candidates to native human purified properdin (Quidel; Cat No: A412) were determined by Surface plasmon resonance-based measurement using the ProteOn XPR36 (Bio-Rad). All binding measurements were performed in PBS (pH 7.4, 0.005% Surfactant P20) at 25° C. To measure the binding rate constants of properdin to the mAbs, human properdin was immobilized onto a GLC sensor chip using amine coupling chemistry. […] The data, in the form of sensograms were analysed using data-fitting programs integrated in the ProteOn system. Binding affinities in terms of KD value are provided for tested antibodies in table 7.

[3] = biological target: T2, recombinant human neonatal Fc receptor (rhFcRn), Sino Biologics (human, UniProt P55899 24-297; P61769 21-119); experiment: SPR (ProteOn XPR36), rhFcRn immobilized on GLC chip, antibody injected, PBS pH 6.0, 25 C
T2 construct: Bought protein
Method: The kinetic constants for the binding of antibodies to recombinant human neonatal Fc receptor (hFcRn) were determined by Surface plasmon resonance-based measurement using the ProteOn XPR36 (Bio-Rad). Recombinant rhFcRn receptor (Sino Biologics) was immobilized on a GLC chip following manufacturer's instruction. […] Reactions were carried in PBS (pH 6.0, 0.005% Surfactant P20) at 25° C. After each sample run, the chip surface was regenerated using PBS, pH 7.4. The data, in the form of sensograms, was analysed using the data-fitting programs in the ProteOn system.

T1 sequence (P27918 28-469): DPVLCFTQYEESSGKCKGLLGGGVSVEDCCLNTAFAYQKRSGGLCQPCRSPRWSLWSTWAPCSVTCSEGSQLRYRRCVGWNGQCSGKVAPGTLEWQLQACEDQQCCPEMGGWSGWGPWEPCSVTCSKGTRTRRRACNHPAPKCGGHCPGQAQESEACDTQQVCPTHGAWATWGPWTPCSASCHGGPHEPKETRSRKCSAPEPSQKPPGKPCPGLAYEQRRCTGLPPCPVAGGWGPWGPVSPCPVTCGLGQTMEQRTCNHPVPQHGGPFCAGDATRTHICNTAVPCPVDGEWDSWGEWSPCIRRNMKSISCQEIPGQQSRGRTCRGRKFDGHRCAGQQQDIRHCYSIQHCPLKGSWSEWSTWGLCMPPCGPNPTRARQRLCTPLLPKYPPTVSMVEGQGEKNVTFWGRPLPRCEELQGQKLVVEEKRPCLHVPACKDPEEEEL

Row | Kd [1] [nM] | koff [1] [s⁻¹] | kon [1] [M⁻¹ s⁻¹] | Kd [2] [nM] | koff [2] [s⁻¹] | kon [2] [M⁻¹ s⁻¹] | Kd [3] [nM] | koff [3] [s⁻¹] | kon [3] [M⁻¹ s⁻¹] | Binder
1 | 0.731 | 0.000509 | 696000 | – | – | – | – | – | – | 103B2 (antibody, V domains shown, Murine hybridoma antibody purified by Protein A; also called murine anti-properdin hybridoma mAb 103B2) VH: KPSQSLSLTCSVTGYSITSTYYWNWIRQFPGNKLEWMGYISYDGTNKYNPSLKNRISITRDTSKNRFFLKLNSVTTEDTATYYCAGDDYDRSPWFAYWGQGTLVTVSA VL: DIVLTQSPASQSASLGESVTITCLASQTIGTWLAWYQQKPGKSPQLLIYAATSLADGVPSRFSGSGSGTKFSFKISSLQAEDFVSYYCQQLYSTPWTFGGGTKLEIKR
2 | – | – | – | 2.07 | 0.000867 | 420000 | – | – | – | P11 (humanized version of E12) (antibody, IgG4, V domains shown, Full-length humanized IgG4 made in CHO-S; also called pZRCIII Hyg E12LC-E12HC) VH: QVQLQQSGPELVRPGVSVKISCKGSGYTFTDYALHWVKQSHAESLEWIGVISTYYGDASYNQKFKDKATMTVDISSSTAYLELARLTSEDSAIYYCARDGYLDYWGQGTLVTVSS VL: QSVLTQPPSVSAAPGQKVTISCSGSSSNIGNNYVSWYVQLPGTAPKLLIYDNNKRFSGVPDRFSGSKSGTSATLGITGLQTGDEADYYCGAWDGSLREAVFGGGTKVTVLR
3 | – | – | – | 2.81 | 0.00151 | 540000 | – | – | – | P14 (humanized version of 124F9) (antibody, IgG4, V domains shown, Full-length humanized IgG4 made in CHO-S; also called pZRCIII Hyg P14LC-P14HC) VH: QVQLQESGPGLVKPSQTLSLTCTVSGYSITSGYYWNWIRQHPGKGLEWIGYISYDGGNKYNPSLKSRVTISRDTSKNQFSLKLSSVTAADTAVYYCARDLDGYESMDYWGQGTSVTVSS VL: DIVMTQSPLSLSVTPGQPASISCKSSQSLLDINGKTYLNWYLQKPGQSPQLLIYLVSKLDSGVPDRFSGSGSGTDFTLKISRVEAEDVGVYYCWQGTHFPYTFGQGTKVEIKR
4 | – | – | – | 0.162 | 0.000128 | 792000 | 66 | 0.0329 | 502000 | P15 (GLS) (humanized version of 103B2 with GLS in constant region) (antibody, human IgG4 S228P, also called pZRCIII Hyg P15LC-P15HC (IgG4 GLS); copies: 2 + 2) heavy: not shown VL: DIQMTQSPSSLSASVGDRVTITCLASQTIGTWLAWYQQKPGKAPKLLIYAATSLADGVPSRFSGSGSGTDFTLTISSLQPEDFATYYCQQLYSTPWTFGGGTKLEIKR
5 | – | – | – | 0.154 | 0.000142 | 925000 | 554 | 0.125 | 227000 | P15 (humanized version of 103B2) (antibody, human IgG4 S228P, also called pZRCIII Hyg P15LC-P15HC; copies: 2 + 2) heavy: not shown VL: DIQMTQSPSSLSASVGDRVTITCLASQTIGTWLAWYQQKPGKAPKLLIYAATSLADGVPSRFSGSGSGTDFTLTISSLQPEDFATYYCQQLYSTPWTFGGGTKLEIKR
